According to the Immune Epitope Database (IEDB):

How the values were obtained:
Assay in all cases: IEDB peptide-MHC binding, purified MHC/competitive/radioactivity; filed as Kd, often an IC50 or EC50 that approximates it; ≥ and ≤ were set here for values at or beyond the usual limits of such assays
HLA-A*03:01 = molecular target: HLA-A*03:01
HLA-A*11:01 = molecular target: HLA-A*11:01
HLA-A*31:01 = molecular target: HLA-A*31:01
HLA-A*33:01 = molecular target: HLA-A*33:01
HLA-A*68:01 = molecular target: HLA-A*68:01
HLA-A*02:02 = conditions: source organism: Vaccinia virus WR
HLA-A*02:03 = molecular target: HLA-A*02:03
HLA-A*02:06 = molecular target: HLA-A*02:06
[1] = source organism: Vaccinia virus WR
[2] = source organism: Mammarenavirus tacaribeense
[3] = source organism: SARS coronavirus Tor2
[4] = source organism: Mammarenavirus guanaritoense

With PLFDFVNEKY the Kd (HLA-A*03:01; [1]) was no less than 70100 nM, the Kd (HLA-A*11:01; [1]) was no less than 69800 nM and the Kd (HLA-A*31:01; [1]) was no less than 26800 nM. For the same sequence, the Kd (HLA-A*33:01; [1]) was no less than 70000 nM and the Kd (HLA-A*68:01; [1]) was no less than 70200 nM.
In the case of PLHIVCSKTV, the Kd (HLA-A*02:02) is reported as no less than 34500 nM, the Kd (HLA-A*02:03; [1]) is reported as 5270 nM and the Kd (HLA-A*02:06; [1]) is reported as no less than 27000 nM.
For PMSRLFMDEI, the Kd (HLA-A*02:02) was 1930 nM, the Kd (HLA-A*02:03; [1]) was 726 nM and the Kd (HLA-A*02:06; [1]) was 4370 nM.
Work on PTFQLLNMIK yielded a Kd (HLA-A*03:01; [1]) of 9050 nM, a Kd (HLA-A*11:01; [1]) of 93.8 nM and a Kd (HLA-A*31:01; [1]) of 12500 nM. For the same sequence, the Kd (HLA-A*33:01; [1]) was no less than 70000 nM and the Kd (HLA-A*68:01; [1]) was no less than 10000 nM.
PVETLFGSY showed a Kd (HLA-A*03:01; [1]) of no less than 38900 nM, a Kd (HLA-A*11:01; [1]) of 2200 nM and a Kd (HLA-A*31:01; [1]) of no less than 62300 nM. It also gave a Kd (HLA-A*33:01; [1]) of no less than 77700 nM and a Kd (HLA-A*68:01; [1]) of no less than 33500 nM.
Sequence QLPKRGVRVR has a Kd (HLA-A*03:01; [1]) of no less than 22600 nM, a Kd (HLA-A*11:01; [1]) of no less than 47000 nM and a Kd (HLA-A*31:01; [1]) of 5380 nM. For the same sequence, the Kd (HLA-A*33:01; [1]) was no less than 70000 nM and the Kd (HLA-A*68:01; [1]) was no less than 20100 nM.
With QYIHCFRKPH the Kd (HLA-A*03:01; [2]) was no less than 70000 nM, the Kd (HLA-A*11:01; [2]) was no less than 69700 nM and the Kd (HLA-A*31:01; [2]) was 386 nM. The Kd (HLA-A*33:01; [2]) was 140 nM and the Kd (HLA-A*68:01; [2]) was no less than 57300 nM.
For RVYANLGER, the Kd (HLA-A*03:01; [3]) was 18.6 nM, the Kd (HLA-A*11:01; [3]) was 126 nM and the Kd (HLA-A*31:01; [3]) was 6.3 nM. For the same sequence, the Kd (HLA-A*33:01; [3]) was no less than 45400 nM and the Kd (HLA-A*68:01; [3]) was 601 nM.
Work on SAQCFKMFYK yielded a Kd (HLA-A*03:01; [3]) of 18.4 nM, a Kd (HLA-A*11:01; [3]) of 4.59 nM and a Kd (HLA-A*31:01; [3]) of 26.8 nM. The Kd (HLA-A*33:01; [3]) was 398 nM and the Kd (HLA-A*68:01; [3]) was 30.5 nM.
Sequence SFSNTIQSY has a Kd (HLA-A*03:01; [1]) of 11700 nM, a Kd (HLA-A*11:01; [1]) of 4300 nM and a Kd (HLA-A*31:01; [1]) of no less than 77900 nM. It also gave a Kd (HLA-A*33:01; [1]) of no less than 77700 nM and a Kd (HLA-A*68:01; [1]) of 10400 nM.
Work on SIKDVIHDY yielded a Kd (HLA-A*03:01; [1]) of 2830 nM, a Kd (HLA-A*11:01; [1]) of 2810 nM and a Kd (HLA-A*31:01; [1]) of 2260 nM. For the same sequence, the Kd (HLA-A*33:01; [1]) was 19400 nM and the Kd (HLA-A*68:01; [1]) was 3550 nM.
SIVLHIQLEH showed a Kd (HLA-A*03:01; [4]) of 1460 nM, a Kd (HLA-A*11:01; [4]) of 1070 nM and a Kd (HLA-A*31:01; [4]) of 11800 nM. For the same sequence, the Kd (HLA-A*33:01; [4]) was 8100 nM and the Kd (HLA-A*68:01; [4]) was no less than 22100 nM.
SLGLILLKMV gave a Kd (HLA-A*02:03; source organism: Dengue virus 4 Philippines/H241/1956) of 58.2 nM.
SLIGLTARA gave a Kd (HLA-A*02:03; source organism: Dengue virus 1 Brazil/97-11/1997) of 4.13 nM.
With SMDVLAEKKY the Kd (HLA-A*03:01; [1]) was no less than 28500 nM, the Kd (HLA-A*11:01; [1]) was no less than 10000 nM and the Kd (HLA-A*31:01; [1]) was 17100 nM. It also gave a Kd (HLA-A*33:01; [1]) of no less than 29300 nM and a Kd (HLA-A*68:01; [1]) of 2640 nM.
SQIFNIISY gave a Kd (HLA-A*03:01; [1]) of 675 nM, a Kd (HLA-A*11:01; [1]) of 53.5 nM and a Kd (HLA-A*31:01; [1]) of 915 nM. For the same sequence, the Kd (HLA-A*33:01; [1]) was 996 nM and the Kd (HLA-A*68:01; [1]) was 158 nM.
For SSVQLSNNKY, the Kd (HLA-A*03:01; [1]) was 4650 nM, the Kd (HLA-A*11:01; [1]) was 141 nM and the Kd (HLA-A*31:01; [1]) was 2870 nM. It also gave a Kd (HLA-A*33:01; [1]) of 10100 nM and a Kd (HLA-A*68:01; [1]) of 65.7 nM.
STCFKLMLK showed a Kd (HLA-A*03:01; [3]) of 0.808 nM, a Kd (HLA-A*11:01; [3]) of 0.553 nM and a Kd (HLA-A*31:01; [3]) of 26.5 nM. For the same sequence, the Kd (HLA-A*33:01; [3]) was 1450 nM and the Kd (HLA-A*68:01; [3]) was 1.65 nM.
STQSVLCVK gave a Kd (HLA-A*03:01; [1]) of 149 nM, a Kd (HLA-A*11:01; [1]) of 0.756 nM and a Kd (HLA-A*31:01; [1]) of 115 nM. The Kd (HLA-A*33:01; [1]) was 15600 nM and the Kd (HLA-A*68:01; [1]) was 3.14 nM.
With STYSDICSK the Kd (HLA-A*03:01; [1]) was 23.6 nM, the Kd (HLA-A*11:01; [1]) was 0.706 nM and the Kd (HLA-A*31:01; [1]) was 80.2 nM. It also gave a Kd (HLA-A*33:01; [1]) of 988 nM and a Kd (HLA-A*68:01; [1]) of 2.06 nM.
TIAGGVCYY was tested, and the Kd (HLA-A*03:01; [1]) was 110 nM, the Kd (HLA-A*11:01; [1]) was 94.7 nM and the Kd (HLA-A*31:01; [1]) was 16200 nM. The Kd (HLA-A*33:01; [1]) was no less than 51000 nM and the Kd (HLA-A*68:01; [1]) was 605 nM.
With TILDDNLYK the Kd (HLA-A*03:01; [1]) was 390 nM, the Kd (HLA-A*11:01; [1]) was 14.8 nM and the Kd (HLA-A*31:01; [1]) was no less than 50300 nM. For the same sequence, the Kd (HLA-A*33:01; [1]) was no less than 77700 nM and the Kd (HLA-A*68:01; [1]) was 1180 nM.
Work on TIPIGMQFDK yielded a Kd (HLA-A*03:01; [1]) of 6040 nM, a Kd (HLA-A*11:01; [1]) of 4.02 nM and a Kd (HLA-A*31:01; [1]) of 17400 nM. For the same sequence, the Kd (HLA-A*33:01; [1]) was no less than 70000 nM and the Kd (HLA-A*68:01; [1]) was 38.1 nM.
TLDTMDDMKK was tested, and the Kd (HLA-A*03:01; [1]) was 762 nM, the Kd (HLA-A*11:01; [1]) was 287 nM and the Kd (HLA-A*31:01; [1]) was no less than 30200 nM. The Kd (HLA-A*33:01; [1]) was no less than 70000 nM and the Kd (HLA-A*68:01; [1]) was 2150 nM.
Sequence TLQGPPGTGK has a Kd (HLA-A*03:01; [3]) of 282 nM, a Kd (HLA-A*11:01; [3]) of 264 nM and a Kd (HLA-A*31:01; [3]) of 3290 nM. It also gave a Kd (HLA-A*33:01; [3]) of 8190 nM and a Kd (HLA-A*68:01; [3]) of 225 nM.
TQFNFNGHTY showed a Kd (HLA-A*03:01; [1]) of 218 nM, a Kd (HLA-A*11:01; [1]) of 965 nM and a Kd (HLA-A*31:01; [1]) of 4060 nM. For the same sequence, the Kd (HLA-A*33:01; [1]) was 16100 nM and the Kd (HLA-A*68:01; [1]) was 266 nM.
TSMMVILPDK was tested, and the Kd (HLA-A*03:01; [1]) was 141 nM, the Kd (HLA-A*11:01; [1]) was 1.8 nM and the Kd (HLA-A*31:01; [1]) was 455 nM. It also gave a Kd (HLA-A*33:01; [1]) of no less than 23000 nM and a Kd (HLA-A*68:01; [1]) of 27 nM.
Sequence VFAYVGCYNK has a Kd (HLA-A*03:01; [3]) of 1530 nM, a Kd (HLA-A*11:01; [3]) of 350 nM and a Kd (HLA-A*31:01; [3]) of 184 nM. For the same sequence, the Kd (HLA-A*33:01; [3]) was 340 nM and the Kd (HLA-A*68:01; [3]) was 65.3 nM.
VLNRHAITMY was tested, and the Kd (HLA-A*03:01; [1]) was 94.4 nM, the Kd (HLA-A*11:01; [1]) was 966 nM and the Kd (HLA-A*31:01; [1]) was no less than 70000 nM. It also gave a Kd (HLA-A*33:01; [1]) of no less than 70000 nM and a Kd (HLA-A*68:01; [1]) of 16800 nM.
Sequence VQYENLKYTV has a Kd (HLA-A*02:06; source organism: Dengue virus 3 Martinique/1243/1999) of 61 nM.
For WLSMTDEMR, the Kd (HLA-A*03:01; [1]) was no less than 78000 nM, the Kd (HLA-A*11:01; [1]) was no less than 46300 nM and the Kd (HLA-A*31:01; [1]) was 1790 nM. The Kd (HLA-A*33:01; [1]) was 6280 nM and the Kd (HLA-A*68:01; [1]) was 34.4 nM.
For YIFPGDKTSY, the Kd (HLA-A*03:01; [1]) was 258 nM, the Kd (HLA-A*11:01; [1]) was 1260 nM and the Kd (HLA-A*31:01; [1]) was 18700 nM. For the same sequence, the Kd (HLA-A*33:01; [1]) was no less than 70000 nM and the Kd (HLA-A*68:01; [1]) was 40.7 nM.
YLSTFNMWR showed a Kd (HLA-A*03:01; [1]) of 201 nM, a Kd (HLA-A*11:01; [1]) of 666 nM and a Kd (HLA-A*31:01; [1]) of 64.7 nM. For the same sequence, the Kd (HLA-A*33:01; [1]) was 94.5 nM and the Kd (HLA-A*68:01; [1]) was 3.42 nM.
In the case of YVKSPKFSK, the Kd (HLA-A*03:01; [3]) is reported as 6980 nM, the Kd (HLA-A*11:01; [3]) is reported as 259 nM and the Kd (HLA-A*31:01; [3]) is reported as 2320 nM. The Kd (HLA-A*33:01; [3]) was 7520 nM and the Kd (HLA-A*68:01; [3]) was 65.5 nM.
